Source: PMC4622054

Molecular target: Human FcRn (hFcRn), soluble α-chain/β2m heterodimer, P55899;P61769
Assay: BLI (in vitro BLI-based FcRn platform)
Conditions: chain shown with the change;, read off a plot

| Binder | other: Predicted Human t1/2, β (parent: est. 690) | other: Predicted Human t1/2, β (parent: est. 270) |
| --- | --- | --- |
| CDA1 (actoxumab), fully human IgG1 mAb CDA (with HCV VH CDRs): VH CDR1-3 of CDA1 replaced by VH CDRs of HCV1; residues not printed (protein) chain 1: QVQLVESGGGVVQPGRSLRLSCAASGFTFNNYGMHWVRQAPGKGLEWVALIWFDENNKDYTDSVKGRFTISRDNSKNTLYLQMNSLRAEDTAVYYCARDISLVRDAFIYFDFWGQGTVVTVSS chain 2: DIQMTQSPSSVSASVGDRVTITCRASQGISSWLAWYQHKPGKAPKLLIYAASSLQSGVPSRFSGSGSGTDFTLTISSLQPEDFATYYCQQANSFPWTFGQGTKVEIK | 15 days | – |
| HCV1, fully human IgG1 mAb HCV (with CDA VH CDRs): VH CDR1-3 of HCV1 replaced by VH CDRs of CDA1; residues not printed (protein) chain 1: EVQLLESGGGVVQPGRSLRLSCTASGFSFSNYGMHWVRQTPGKGLEWLAVIWYDGSNEYYADSVRGRFTISRDNSKNTLFLQMNSLKTEDTAMYYCARWGMVRGVIDVFDIWGLGTLVTVSS chain 2: ELTLTQSPATLSLSPGERATLSCRASQSVSSYLAWYQQKPGQAPRLLIYDASNRATGIPARFSGSGSGTDFTLTISSLEPEDFAVYYCQQRSNWITFGQGTRLEIK | – | 22.9 days |
| HCV1, fully human IgG1 mAb HCV (with CDB Vk CDRs): Vk CDR1-3 of HCV1 replaced by Vk CDRs of CDB1; residues not printed (protein) chain 1: EVQLLESGGGVVQPGRSLRLSCTASGFTFNNYGMHWVRQTPGKGLEWLAVIWFDENNKYYADSVRGRFTISRDNSKNTLFLQMNSLKTEDTAMYYCARDISLVRDAFIYFDFWGLGTLVTVSS chain 2: ELTLTQSPATLSLSPGERATLSCRASQSVSSSYLAWYQQKPGQAPRLLIYGASNRATGIPARFSGSGSGTDFTLTISSLEPEDFAVYYCQQYGSSTWTFGQGTRLEIK | – | 13.3 days |
